{
  "source": "paper PMC2965676",
  "about": "“The C-Terminal Domain of the MutL Homolog from Neisseria gonorrhoeae Forms an Inverted Homodimer” (PLoS ONE, 2010)",
  "proteins": {"B1": {"name": "C-terminal domain of the MutL homolog of Neisseria gonorrhoeae (NgoL-CTD), wild type (domain or fragment, UniProt Q5F8M6 458-658, looked up)", "chain": "IPSQSELPPLGFAIAQLLGIYILAQAEDSLLLIDMHAAAERVNYEKMKRQRQENGNLQSQHLLIPVTFAASHEECAALADHAETLAGFGLELSDMGGNTLAVRAAPVMLGKSDVVSLARDVLGELAQVGSSQTIASHENRILATMSCHGSIRAGRRLTLPEMNALLRDMENTPRSNQCNHGRPTWVKLTLKELDTLFLRGQ", "notes": "MutL homolog (NgoL) of Neisseria gonorrhoeae, C-terminal domain, residues 458-658; In the model, residues 463-654 (monomer A) and 464-656 (monomer B) are built; 587-591 are disordered; also called C-terminal domain of NgoL; source: selenomethionine-labelled form in E. coli B834"}},
  "target": "the molecule itself",
  "assay": "SEC; Superose 6 HR 10/30; 10 mM Hepes pH 8.0, 300 mM KCl, 10% glycerol, 1 mM 2-mercaptoethanol; 0.4 ml/min; calibrated with molecular-mass markers",
  "data": [
    {"protein": "B1", "values": [
      {"measurement": "stoichiometry N", "result": 2}
    ]}
  ]
}
